The test system of one data set is PSAT1. As to the kind of experiment: PSAT1 protein expression in mouse myocardium post-MI after modRNA delivery. In kind it is in vivo. To be noted: 100 μg modRNA into myocardium post-MI; within 24 hours. How it is done:
In vivo transfection of modRNA was done as described previously in a recent method paper (Magadum A., et al., Circulation. 2020, 141 (15): 1249-1265; Sultana N., et al., Mol Ther, 2017, 25 (6): 1306-1315) using sucrose citrate buffer containing 10 μl of sucrose in nuclease-free water (0.3 g/ml), 10 μl of citrate (0.1M pH-7; Sigma) mixed with 10 μl of different concentrations of modRNA in saline to a total volume of 30 μl. Immediately after LAD ligation, mice received an intra-myocardial injection of modRNA (100 μg) in total volume of 30 μL at 3 different sites (mid-anterior×2 places and apical anterior) in the peri-infarct area (Magadum A., et al., Circulation. 2020, 141 (15): 1249-1265; Magadum, A., et al., 2021, Advanced Science, 9:2004661). For in vitro transfection, RNAiMAX transfection reagent (Life Technologies) was used according to manufacturer's recommendation (Magadum A., et al., Circulation. 2020, 141 (15): 1249-1265; Sultana N., et al., Mol Ther, 2017, 25 (6): 1306-1315).
All surgical and experimental procedures with mice were performed in accordance with protocols approved by Institutional Animal Care and Use Committees at Temple University Animal Care and Use Committee (IACUC). C57BL6 or CM-specific MADM mice (8-12-weeks-old) were anesthetized with isoflurane. […] This ratio was calculated as the heart tissue weight relative to the mouse total body weight in grams (g). […]

A short description of data set [1]: Long-term survival of mice post-MI. It counts as in vivo, mouse. To be noted: Luc vs PSAT1 modRNA. How it is done:
All animal procedures were performed under protocols approved by the Temple University Animal Care and Use Committee. Male and female C57BL6 mice were used. Different modRNAs (100 μg/heart) were injected directly into the myocardium in open chest surgery. Three to ten animals used for each experiment. For mice survival, C57BL6 mice (10-12-weeks-old) treated with Luc or PSAT1 modRNAs (n=10) post induction of MI and were followed for the indicated time. Deaths were monitored and documented over time. Tamoxifen-inducible CM-restricted MADM mice (α-MHC-MADM mice) mice were generated by crossing MADM mice (Jackson laboratory) to […].^Tg(Myh6-cre/Esr1*) 1Jmk/J (Cat no. 005657) mice to get α-MHC-MADM mice (Yuko, A. E., et al., 2021, Redox Biology, 47:102162). Tamoxifen (Sigma-Aldrich) was dissolved in sesame oil at 10 mg/ml as stock solution. To induce Cre activation, tamoxifen was administered to mice by intraperitoneal (IP) injection five times (48 h interval between administrations) at 40 mg/kg body weight for adult mice (Yuko, A. E., et al., 2021, Redox Biology, 47:102162). The tissues were harvested at mentioned time for analysis.

Data on 1 molecule can be found in patent publication US20250215403A1, “Compositions and Methods for Cardiac Tissue Regeneration” (Temple University - Of The Commonwealth System Of Higher …, priority 2022, published 2025).

B1: PSAT1 modRNA: modified mRNA with N1-methylpseudouridine, transcribed in vitro, encoding phosphoserine aminotransferase 1 (ORF SEQ ID NO: 1, RNA SEQ ID NO: 2) (nucleic acid)
chain: AUGGAAGCCACCAAGCAAGUGGUUAACUUUGGGCCCGGGCCUGCCAAGCUGCCACACUCGGUAUUGUUGGAGAUCCAGAAGCAGCUACUAGACUACAGAGGACUCGGCAUCAGUGUGCUCGAAAUGAGUCACAGGUCAUCAGAUUUUGCCAAGAUUAUUGGCAAUACAGAGAAUCUUGUGAGGGAAUUGCUAGCUGUUCCCAACAACUACAAGGUGAUCUUUGUACAAGGAGGUGGGUCUGGCCAGUUCAGUGCUGUCCCCUUAAAUCUGAUUGGCCUGAAAGCUGGAAGGAGUGCUGACUACGUGGUGACCGGAGCUUGGUCAGCUAAGGCUGCGGAAGAAGCCAAGAAGUUUGGAACGGUGAACAUUGUCCACCCUAAACUUGGAAGUUACACAAAAAUUCCAGACCCAAGCACCUGGAACCUCAACCCGGACGCCUCCUAUGUAUACUUCUGUGCAAACGAGACUGUGCACGGGGUGGAGUUUGACUUCGUACCUGACGUCAAGGGAGCGGUGCUGGUCUGUGACAUGUCCUCAAACUUCUUAUCCAGGCCGGUGGAUGUUUCCAAGUUUGGUGUGAUUUUCGCUGGUGCUCAGAAGAAUGUUGGCUCUGCCGGGGUGACGGUGGUGAUUGUCCGGGAUGACCUGCUGGGGUUCUCGCUCAGAGAGUGCCCAUCAGUCCUUGACUACAAAGUGCAGGCUGGGAACAACUCUUUGUAUAACACACCUCCGUGCUUCAGCAUCUACGUCAUGGGCAUGGUCCUGGAAUGGAUCAAGAACAACGGCGGGGCCGCAGCCAUGGAGAAGCUCAGCUCCAUCAAAUCCCAAAUGAUUUAUGAGAUCAUUGAUAAUUCUCAAGGAUUUUAUGUAUGCCCAGUGGAGCGCCAGAAUAGAAGCAGGAUGAACAUCCCAUUUCGCAUUGGCAACGCCAAAGGAGACGAAGCUUUGGAAAAGCGGUUUCUUGACAAGGCGGUAGAACUCAACAUGAUCUCCUUGAAGGGGCACAGGUCAGUGGGAGGCAUUCGUGCCUCUCUGUAUAACGCUGUCACAACCGAAGACGUUGAGAAGCUGGCGGCCUUCAUGAAGAAUUUCUUGGAGAUGCAUCAGCUGUGA
modifications: N1-methylpseudouridine
As for B1, in the data set with PSAT1, the “PSAT1 protein expression in mouse myocardium” value was “robust”. Also, in data set [1], the mice survival entry is recorded as “significantly improved”.
